# Assay results taken from IntAct's records for PubMed 31515488.
# B1: U3 small nucleolar RNA-associated protein 14 homolog C (Homo sapiens), Q5TAP6 (parent)
# chain: MNVNQVAENLALSHQEELVDLPKNYPLSENEDEGDSDGERKHQKLLEAIISLDGKNRRKLAERSEASLKVSEFSVSSEGSGEKLGLADLLEPVKTSSSLATVKKQLNRVKSKKVVELPLNKEKIEQIHREVAFSKTSQVLSKWDPIILKNQQAEQLVFPLGKEQPAIAPIEHALSGWKARTPLEQEIFNLLHKNKQPVTDPLLTPMEKASLQAMSLEEAKMHRAELQRARALQSYYEAKARKEKKIKSKKYHKVVKKGKAKKALKEFEQLQKVNPTVALEEMEKIENARMMERMSLKHQNSGKWAKSKAIMAKYDLEARQAMQEQLAKNKELTQKLQVASESEEEEGGTEVEELLVPHVANEVQMNVDGPNPWMFRSCTSDTKEAATQEDPEQVPELAAHEVSASEAEERPVAEEEILLREFEERQSLRKRSELNQDAEPASSQETKDSSSQEVLSELRALSQKLKEKHQSRKQKASSEGTVPQVQREEPAPEEAEPLLLQRSERVQTLEELEELGKEDCFQNKELPRPVLEGQQSERTPNNRPDAPKEKKEKEQLINLQNFLTTQSPSVRSLAVPTIIEELEDEEERDQRQMIKEAFAGDDVIRDFLKEKREAVEASKPKDVDLTLPGWGEWGGVGLKPSAKKRRQFLIKAPEGPPRKDKNLPNVIISEKRNIHAAAHQVQVLPYPFTHHRQFERTIQTPIGSTWNTQRAFQKLTTPKVVTKPGHIIKPIKAEDVGYQSSSRSDLPVIQRNPKRITTRHNKEEKL
# partner: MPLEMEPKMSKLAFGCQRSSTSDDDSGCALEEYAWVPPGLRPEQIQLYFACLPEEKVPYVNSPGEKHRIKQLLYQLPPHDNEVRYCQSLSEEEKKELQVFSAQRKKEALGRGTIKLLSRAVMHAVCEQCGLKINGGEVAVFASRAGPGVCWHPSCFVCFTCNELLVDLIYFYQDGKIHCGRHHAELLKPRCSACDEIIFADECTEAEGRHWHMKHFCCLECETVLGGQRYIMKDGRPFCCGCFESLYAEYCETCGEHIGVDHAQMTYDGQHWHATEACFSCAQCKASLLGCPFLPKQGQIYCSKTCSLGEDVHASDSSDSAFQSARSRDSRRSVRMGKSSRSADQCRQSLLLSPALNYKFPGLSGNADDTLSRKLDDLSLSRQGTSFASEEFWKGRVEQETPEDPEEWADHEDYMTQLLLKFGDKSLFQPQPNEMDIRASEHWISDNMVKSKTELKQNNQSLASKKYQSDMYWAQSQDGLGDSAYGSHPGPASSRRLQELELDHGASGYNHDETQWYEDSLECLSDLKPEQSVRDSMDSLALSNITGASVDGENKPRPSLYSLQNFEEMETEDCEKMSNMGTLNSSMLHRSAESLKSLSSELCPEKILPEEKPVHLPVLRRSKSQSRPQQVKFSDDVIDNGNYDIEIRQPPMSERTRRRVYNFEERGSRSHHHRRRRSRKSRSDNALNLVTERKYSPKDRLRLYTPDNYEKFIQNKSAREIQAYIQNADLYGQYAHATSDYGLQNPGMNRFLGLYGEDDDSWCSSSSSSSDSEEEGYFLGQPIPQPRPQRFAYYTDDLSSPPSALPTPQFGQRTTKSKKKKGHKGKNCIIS
# B2: Protein BEX5 (Homo sapiens), Q5H9J7 (parent)
# chain: MENVPKENKVVEKAPVQNEAPALGGGEYQEPGGNVKGVWAPPAPGFGEDVPNRLVDNIDMIDGDGDDMERFMEEMRELRRKIRELQLRYSLRILIGDPPHHDHHDEFCLMP
# B3: Dynein axonemal light chain 4 (Homo sapiens), O96015 (parent)
# chain: MGETEGKKDEADYKRLQTFPLVRHSDMPEEMRVETMELCVTACEKFSNNNESAAKMIKETMDKKFGSSWHVVIGEGFGFEITHEVKNLLYLYFGGTLAVCVWKCS
# B4: Synaptotagmin-like protein 5 (Homo sapiens), Q8TDW5 (parent)
# chain: MSKNSEFINLSFLLDHEKEMILGVLKRDEYLKKVEDKRIRKLKNELLEAKRRSGKTQQEASRVCVHCHRNLGLIFDRGDPCQACSLRVCRECRVAGPNGSWKCTVCDKIAQLRIITGEWFFEEKAKRFKQVNVLGTDVVRQSILRRSPGAEEVQSQEQTRQDAEKSDTSPVAGKKASHDGPKRKGFLLSKFRSATRGEIITPKTDTGRSYSLDLDGQHFRSLKSPPGSDRGSTGSSDLNDQEPGPRTPKSSRSNGVTPGTQSSPAPSTRTVTSVISREYGFENSMDLAAIEGTSQELTKSHRRNTSGTPSIAVSGTSLSSDQSRSELDLSESFTEDSEDTVSIRSKSVPGALDKDSLEETEESIDALVSSQLSTNTHRLASGLSTTSLNSMMSVYSETGDYGNVKVSGEILLHISYCYKTGGLYIFVKNCRNLAIGDEKKQRTDAYVKSYLLPDKSRNNKRKTKIRTGTNPEFNETLKYTISHTQLETRTLQLSVWHYDRFGRNSFLGEVEIPFDSWNFENPTDEWFVLQPKVEFAPDIGLQYKGELTVVLRYIPPEENLMLPPEQLQGNKTFKKGKKKESPVISGGILEVFIKEAKNLTAVKSGGTSDSFVKGYLLPDDSKATKHKTLVIKKSVNPQWNHTFMFSGIHPQDIKNVCLELTIWDKEAFSSNIFLGGVRLNSGSGVSHGKNVDWMDSQGEEQRLWQKMANNPGTPFEGVLMLRSSMGKCRL
# partner: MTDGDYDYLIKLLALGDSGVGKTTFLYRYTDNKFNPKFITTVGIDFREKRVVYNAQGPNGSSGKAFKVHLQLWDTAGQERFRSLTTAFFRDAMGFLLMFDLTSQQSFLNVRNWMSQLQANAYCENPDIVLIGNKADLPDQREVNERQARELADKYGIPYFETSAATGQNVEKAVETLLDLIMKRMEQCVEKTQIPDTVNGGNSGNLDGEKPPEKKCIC
# B5: Microtubule-associated tumor suppressor candidate 2 (Homo sapiens), Q5JR59-3 (parent)
# chain: MGHCCCKPYNCLQCLDKTNESALVKEKELSIELANIRDEVAFHTAKCEKLQKEKEELERRFEDEVKRLGWQQQAELQELEERLQLQFEAEMARLQEEHGDQLLSIRCQHQEQVEDLTASHDAALLEMENNHTVAITILQDDHDHKVQELMSTHELEKKELEENFEKLRLSLQDQVDTLTFQSQSLRDRARRFEEALRKNTEEQLEIALAPYQHLEEDMKSLKQVLEMKNQQIHEQEKKILELEKLAEKNIILEEKIQVLQQQNEDLKARIDQNTVVTRQLSEENANLQEYVEKETQEKKRLSRTNEELLWKLQTGDPTSPIKLSPTSPVYRGSSSGPSSPARVSTTPR
# partner: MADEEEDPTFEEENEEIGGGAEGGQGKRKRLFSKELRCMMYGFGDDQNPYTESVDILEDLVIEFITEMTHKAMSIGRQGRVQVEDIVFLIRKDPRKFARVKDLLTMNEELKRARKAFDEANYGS
# B6: Breast cancer anti-estrogen resistance protein 3 (Homo sapiens), O75815-1 (parent)
# chain: MAAGKFASLPRNMPVNHQFPLASSMDLLSSRSPLAEHRPDAYQDVSIHGTLPRKKKGPPPIRSCDDFSHMGTLPHSKSPRQNSPVTQDGIQESPWQDRHGETFTFRDPHLLDPTVEYVKFSKERHIMDRTPEKLKKELEEELLLSSEDLRSHAWYHGRIPRQVSENLVQRDGDFLVRDSLSSPGNFVLTCQWKNLAQHFKINRTVLRLSEAYSRVQYQFEMESFDSIPGLVRCYVGNRRPISQQSGAIIFQPINRTVPLRCLEEHYGTSPGQAREGSLTKGRPDVAKRLSLTMGGVQAREQNLPRGNLLRNKEKSGSQPACLDHMQDRRALSLKAHQSESYLPIGCKLPPQSSGVDTSPCPNSPVFRTGSEPALSPAVVRRVSSDARAGEALRGSDSQLCPKPPPKPCKVPFLKVPSSPSAWLNSEANYCELNPAFATGCGRGAKLPSCAQGSHTELLTAKQNEAPGPRNSGVNYLILDDDDRERPWEPAAAQMEKGQWDKGEFVTPLLETVSSFRPNEFESKFLPPENKPLETAMLKRAKELFTNNDPKVIAQHVLSMDCRVARILGVSEEMRRNMGVSSGLELITLPHGHQLRLDIIERHNTMAIGIAVDILGCTGTLEDRAATLSKIIQVAVELKDSMGDLYSFSALMKALEMPQITRLEKTWTALRHQYTQTAILYEKQLKPFSKLLHEGRESTCVPPNNVSVPLLMPLVTLMERQAVTFEGTDMWEKNDQSCEIMLNHLATARFMAEAADSYRMNAERILAGFQPDEEMNEICKTEFQMRLLWGSKGAQVNQTERYEKFNQILTALSRKLEPPPVKQAEL
# partner: B6 chain
# B7: Transcription initiation factor IIA subunit 1 (Homo sapiens), P52655-1 (parent)
# chain: MANSANTNTVPKLYRSVIEDVINDVRDIFLDDGVDEQVLMELKTLWENKLMQSRAVDGFHSEEQQLLLQVQQQHQPQQQQHHHHHHHQQAQPQQTVPQQAQTQQVLIPASQQATAPQVIVPDSKLIQHMNASNMSAAATAATLALPAGVTPVQQILTNSGQLLQVVRAANGAQYIFQPQQSVVLQQQVIPQMQPGGVQAPVIQQVLAPLPGGISPQTGVIIQPQQILFTGNKTQVIPTTVAAPTPAQAQITATGQQQPQAQPAQTQAPLVLQVDGTGDTSSEEDEDEEEDYDDDEEEDKEKDGAEDGQVEEEPLNSEDDVSDEEGQELFDTENVVVCQYDKIHRSKNKWKFHLKDGIMNLNGRDYIFSKAIGDAEW
# Variants of: B1
# Details: with pric1_human PRICKLE1, Q96MT3
row,Variant,effect of a mutation on the interaction
1,K247E,with no effect
2,T101A,disrupting interaction strength
3,R672H,with no effect
4,I170V,with no effect
5,A652T,with no effect

# Variants of: B2
# Details: with emil1_human EMILIN1, Q9Y6C2
# emil1_human EMILIN1, Q9Y6C2, sequence (Q9Y6C2 whole entry): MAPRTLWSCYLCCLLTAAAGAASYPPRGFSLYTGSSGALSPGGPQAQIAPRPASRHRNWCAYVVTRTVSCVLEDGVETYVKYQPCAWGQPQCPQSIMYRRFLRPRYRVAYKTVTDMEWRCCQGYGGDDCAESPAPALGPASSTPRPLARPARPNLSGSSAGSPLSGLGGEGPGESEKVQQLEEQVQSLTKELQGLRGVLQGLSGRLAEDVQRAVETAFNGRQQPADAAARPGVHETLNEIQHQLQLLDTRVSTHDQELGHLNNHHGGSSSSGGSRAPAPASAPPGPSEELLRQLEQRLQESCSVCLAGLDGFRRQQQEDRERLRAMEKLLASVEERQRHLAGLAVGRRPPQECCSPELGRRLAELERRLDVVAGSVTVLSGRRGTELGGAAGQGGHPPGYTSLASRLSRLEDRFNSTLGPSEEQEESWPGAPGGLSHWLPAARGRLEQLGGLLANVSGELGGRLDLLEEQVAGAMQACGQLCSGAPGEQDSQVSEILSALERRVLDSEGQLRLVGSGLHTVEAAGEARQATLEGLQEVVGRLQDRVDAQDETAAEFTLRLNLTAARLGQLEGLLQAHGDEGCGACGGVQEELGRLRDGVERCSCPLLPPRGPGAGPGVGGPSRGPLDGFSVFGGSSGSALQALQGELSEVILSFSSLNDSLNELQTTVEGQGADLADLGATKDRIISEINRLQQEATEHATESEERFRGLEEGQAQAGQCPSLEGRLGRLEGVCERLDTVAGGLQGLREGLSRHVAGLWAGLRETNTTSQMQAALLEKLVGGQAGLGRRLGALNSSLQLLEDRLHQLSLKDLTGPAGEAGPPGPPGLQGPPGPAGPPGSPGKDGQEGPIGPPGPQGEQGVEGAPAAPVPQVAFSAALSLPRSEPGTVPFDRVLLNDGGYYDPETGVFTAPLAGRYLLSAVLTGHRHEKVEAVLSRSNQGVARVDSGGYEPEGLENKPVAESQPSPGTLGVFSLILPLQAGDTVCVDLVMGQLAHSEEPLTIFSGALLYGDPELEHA
row,Variant,effect of a mutation on the interaction
1,E74D,disrupting interaction strength

# Variants of: B3
# Details: with dyl2_human DYNLL2, Q96FJ2
# dyl2_human DYNLL2, Q96FJ2, sequence (Q96FJ2 whole entry): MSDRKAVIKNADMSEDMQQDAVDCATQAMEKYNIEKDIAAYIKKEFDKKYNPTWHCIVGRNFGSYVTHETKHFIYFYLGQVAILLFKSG
row,Variant,effect of a mutation on the interaction
1,R32C,disrupting interaction strength

# Variants of: B4
# Details: with rb27b_human RAB27B
row,Variant,effect of a mutation on the interaction
1,R160H,with no effect

# Variants of: B5
# Details: with taf13_human TAF13, Q15543
row,Variant,effect of a mutation on the interaction
1,A89V,with no effect

# Variants of: B6
# Details: with bcar3_human BCAR3, O75815
row,Variant,effect of a mutation on the interaction
1,P404S,with no effect

# Variants of: B7
# Details: with nfya_human NFYA
row,Variant,effect of a mutation on the interaction
1,L30V,with no effect
